Reference: patent EP0647275B2 (Mount Sinai School of Medicine, priority 1992, dated 1994)
One block for each compound: values may come before it. Non-standard residues stand in square brackets, D forms with d. Residues, ends and D or L forms follow the SMILES beside them. d(pGlu) = O=C1CC[C@H](C(=O)O)N1; pGlu = O=C1CC[C@@H](C(=O)O)N1

What was measured:
mouse GnRH-R [1] = target: T1, mouse GnRH-R (Mus musculus, UniProt Q01776); assay: Electrophysiological response of Xenopus oocytes injected with WZ25 RNA transcript (two-electrode voltage clamp); format: cell-based; conditions: for response of RNA-injected oocytes to agonist: buserelin 100 nM
T1 construct: The longest open reading frame encodes a 327 amino acid protein; expressed in transfected cells; host or cells: Xenopus laevis oocytes injected with capped synthetic WZ25 RNA transcript
T1 sequence (Q01776 1-327): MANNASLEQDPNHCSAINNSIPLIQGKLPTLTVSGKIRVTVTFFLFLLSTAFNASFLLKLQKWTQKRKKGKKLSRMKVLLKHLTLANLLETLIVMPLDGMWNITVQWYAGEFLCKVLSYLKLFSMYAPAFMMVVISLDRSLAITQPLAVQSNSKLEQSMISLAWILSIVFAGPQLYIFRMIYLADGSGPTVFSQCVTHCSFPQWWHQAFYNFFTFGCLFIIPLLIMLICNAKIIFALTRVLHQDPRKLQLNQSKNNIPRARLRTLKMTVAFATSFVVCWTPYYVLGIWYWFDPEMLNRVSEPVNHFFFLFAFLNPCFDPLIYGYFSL
Description: Adult female Xenopus laevis (Nasco, Ft. Atkinson, WI) were kept at 18-20°C and a day/night cycle of 15h/9h. […] Peptide ligands were diluted in the perfusion buffer and introduced into the bath. The clamp current was recorded using a chart recorder. Reversal potentials were determined by continuous ramping from -70 to +10 mV over 2 seconds with and without agonist through an IBM PC/AT system using the TL-1 interface and pCLAMP software from Axon Instruments (Burlingame, CA).
WZ25 in pBluescript II SK+ (Stratagene) was linearized and capped RNA transcript synthesized using T3 RNA polymerase (Stratagene).

human GnRHR [2] = target: T2, human GnRHR (Homo sapiens, UniProt P30968); assay: Electrophysiological response of Xenopus oocytes injected with LC27-4 RNA transcript; format: cell-based; conditions: 2 x 10^-7 M agonist; LC27-4 RNA-injected oocytes
T2 construct: The human GnRH-R cDNA was subcloned into an expression vector, pSV2A, containing an SV40 early promoter; expressed in transfected cells; host or cells: COS-1 cells, transient DEAE-dextran transfection with pSV2A-human GnRH-R
T2 sequence (P30968 1-328): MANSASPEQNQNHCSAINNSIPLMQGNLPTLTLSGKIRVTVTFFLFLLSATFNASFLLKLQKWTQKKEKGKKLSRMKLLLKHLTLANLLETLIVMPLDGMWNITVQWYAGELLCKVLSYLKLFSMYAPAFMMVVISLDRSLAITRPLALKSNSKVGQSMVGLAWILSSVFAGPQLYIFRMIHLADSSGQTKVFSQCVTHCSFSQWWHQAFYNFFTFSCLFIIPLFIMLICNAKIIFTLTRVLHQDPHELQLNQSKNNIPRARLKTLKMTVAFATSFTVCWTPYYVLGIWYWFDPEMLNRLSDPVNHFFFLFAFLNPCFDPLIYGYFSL
Description: Construct LC27-4 was linearized and capped RNA transcript synthesized using T3 RNA polymerase. Oocyte preparation and electrophysiology were performed as previously described (Sealfon et al., 1990, Mol. Endocrinol. 4:119-124). Cells were injected with 1-10 ng of synthetic transcript and electrophysiology recorded via two-electrode voltage clamp 48 hours later. All agonists and antagonists were applied at a concentration of 0.2 µM.

mouse GnRH-R [3] = target: T1, mouse GnRH-R; assay: 125I-GnRH-A radioligand binding assay, membranes of WZ25 RNA-injected oocytes; conditions: WZ25 RNA-injected oocyte membranes; read-out: Kd, displacement of 125I-GnRH-A
Description: For membrane preparation, 500 oocytes were each injected with 2.5 ng synthetic WZ25 RNA.

GnRH-R = target: T3, GnRH-R (Mus musculus, UniProt Q01776); assay: 125I-GnRH-A radioligand binding assay, αT3-1 cell membranes; conditions: read-out: Kd, displacement of 125I-GnRH-A
T3 construct: similar Kds of 4.5 and 2.9 nM in WZ25 RNA-injected oocyte membranes and αT3-1 cell membranes respectively; endogenous in cells; host or cells: αT3-1 mouse gonadotrope cell membranes, combined with membranes from uninjected oocytes
T3 sequence (Q01776 1-327): T1 sequence (Q01776 1-327)

human GnRHR [4] = target: T2, human GnRHR; assay: 125I-GnRH-A receptor binding, membranes of COS-1 cells transfected with pSV2A-human GnRH-R; conditions: membranes from transfected COS-1 cells; read-out: dissociation constant, displacement of GnRH-A
human GnRHR [5] = target: T2, human GnRHR; assay: Inositol phosphate production in COS-1 cells transfected with pSV2A-human GnRH-R; format: cell-based; conditions: GnRH 10^-8 M; read-out: IC50, inhibition of GnRH-stimulated inositol phosphate production
Description: For studies on inositol phosphate production, 1.8 x 10^5 cells/well (12-well plates) were transfected with 1.5 µg DNA. Cells were assayed 48 hours after transfection.
Accumulation of [^3H]IP in the presence of LiCl was used as an index of inositol phosphate turnover. […] The reaction was terminated by the addition of a perchloric acid solution and phytic acid. After neutralizing with KOH, the inositol phosphates were separated on a Dowex ion exchange column and counted.

[6] = target: mouse gonadotropin-releasing hormone receptor (GnRH-R), clone WZ25 (mouse); assay: cell-based or functional assay
[7] = target: mouse gonadotropin-releasing hormone receptor (GnRH-R), clone WZ25 (mouse); assay: displacement of 125I-GnRH-A by GnRH-A, membranes of WZ25 RNA-injected oocytes
[8] = target: human gonadotropin-releasing hormone receptor (GnRH-R), clone LC27-4 (human); assay: displacement of 125I-GnRH-A, membranes of COS-1 cells transfected with human GnRH-R
[9] = target: mouse gonadotropin-releasing hormone receptor (GnRH-R), clone WZ25 (mouse); assay: displacement of 125I-GnRH-A by GnRH-A, alphaT3-1 cell membranes (endogenous mouse receptor)
[10] = target: mouse gonadotropin-releasing hormone receptor (GnRH-R), clone WZ25 (mouse); assay: radioligand binding of 125I-GnRH-A to membranes of WZ25 RNA-injected oocytes; non-specific binding with 10^-6 M GnRH analogue was 662 cpm
[11] = target: human gonadotropin-releasing hormone receptor (GnRH-R), clone LC27-4 (human); assay: cell-based or functional assay
[12] = target: human gonadotropin-releasing hormone receptor (GnRH-R), clone LC27-4 (human); assay: calculated from the IC50 of inhibition of GnRH-stimulated inositol phosphate production in COS-1 cells transfected with human GnRH-R

Compound: CC(C)C[C@H](NC(=O)CNC(=O)[C@H](Cc1ccc(O)cc1)NC(=O)[C@H](CO)NC(=O)[C@H](Cc1c[nH]c2ccccc12)NC(=O)[C@H](Cc1cnc[nH]1)NC(=O)[C@@H]1CCC(=O)N1)C(=O)N[C@@H](CCCNC(=N)N)C(=O)N1CCC[C@H]1C(=O)NCC(N)=O [GnRH, gonadotropin-releasing hormone]
response of RNA-injected oocytes to agonist (mouse GnRH-R [1]; WZ25 RNA-injected oocytes): large depolarizing response
response to GnRH alone (mouse GnRH-R [1]; WZ25 RNA-injected oocytes, n=4): 4756±1082 nA
Vr of the current elicited by GnRH (mouse GnRH-R [1]; oocytes injected with WZ25 RNA transcript, n=7): -27±0.79 mV
response of RNA-injected oocytes to agonist (human GnRHR [2]): large depolarizing currents

Compound: CCNC(=O)[C@@H]1CCCN1C(=O)[C@H](CCCNC(=N)N)NC(=O)[C@H](CC(C)C)N(C)C(=O)[C@@H](C)NC(=O)[C@H](Cc1ccc(O)cc1)NC(=O)[C@H](CO)NC(=O)[C@H](Cc1c[nH]c2ccccc12)NC(=O)[C@H](Cc1cnc[nH]1)NC(=O)[C@@H]1CCC(=O)N1 [GnRH-A, [D-Ala^6, NaMe-Leu^7, Pro^9-NHEt]GnRH]
Kd (mouse GnRH-R [3]): 4.5 nM
Kd (GnRH-R): 2.9 nM
Kd (human GnRHR [4]): 0.97 nM

Compound: CC(C)C[C@H](NC(=O)[C@@H](Cc1ccccc1)NC(=O)[C@H](Cc1ccc(O)cc1)NC(=O)[C@H](CO)NC(=O)[C@@H]1CCCN1C(=O)[C@@H](Cc1ccccc1)NC(=O)[C@@H]1CCC(=O)N1)C(=O)N[C@@H](CCCNC(=N)N)C(=O)N1CCC[C@H]1C(=O)NCC(N)=O [[D-Phe^2.6, Pro^3]GnRH, [D-Phe^2.6,Pro^3]-GnRH] ([pGlu][dF]PSY[dF]LRPG-NH2)
response to GnRH in the presence of equimolar antagonist (mouse GnRH-R [1]; WZ25 RNA-injected oocytes, n=5): 1880±551 nA
reduction in the response to GnRH (mouse GnRH-R [1]; equimolar antagonist, in comparison with the response to GnRH alone): 60%

Kd (human GnRHR [4]): 8.4 nM
IC50 (human GnRHR [5]): 105 nM
Compound: CC(C)C[C@H](NC(=O)[C@@H](Cc1c[nH]c2ccccc12)NC(=O)[C@H](Cc1ccc(O)cc1)NC(=O)[C@H](CO)NC(=O)[C@@H](Cc1c[nH]c2ccccc12)NC(=O)[C@@H](Cc1ccccc1)NC(=O)[C@H]1CCC(=O)N1)C(=O)N[C@@H](CCCNC(=N)N)C(=O)N1CCC[C@H]1C(=O)NCC(N)=O [antagonist 5, [D-pGlu^1,D-Phe^2,D-Trp^3,6]GnRH] ([d(pGlu)][dF][dW]SY[dW]LRPG-NH2)

Compound: D-Ser(But)^6,Pro^9-N-ethylamide GnRH [buserelin]
response of RNA-injected oocytes to agonist (mouse GnRH-R [1]; WZ25 RNA-injected oocytes): elicited a depolarizing current
response of RNA-injected oocytes to agonist (human GnRHR [2]): large depolarizing currents

reduction in the response to GnRH in the presence of equimolar antagonist, WZ25 RNA-injected oocytes [6]: 60%
response to GnRH (clamp current) in the presence of equimolar antagonist, WZ25 RNA-injected oocytes [6]: 1880 nA
Compound: GnRH antagonist [D-Phe^2.6,Pro^3]-GnRH (from UniProt P01148 24-92) (peptide)

IC50 (human GnRHR [5]): 6.7 nM
Compound: [Ac-D-NaI^1,D-α-4-ClPhe^2,D-Pal^3,D-Arg^6, D-Ala^10]GnRH [antagonist 13]

Kd [7]: 4.5 nM
Kd [8]: 0.97 nM
Kd [9]: 2.9 nM
Bo (maximal binding) [10]: 1430 cpm
Compound: [D-Ala^6, NaMe-Leu^7, Pro^9-NHEt]GnRH (GnRH-A) (from UniProt P01148 24-92) (peptide)

IC50 of inhibition of GnRH-stimulated (10^-8 M) inositol phosphate production, transfected COS-1 cells [11]: 105 nM
Kd [8]: 8.4 nM
Kd [12]: 3.6 nM
Compound: antagonist 5: [D-pGlu^1,D-Phe^2,D-Trp^3,6]GnRH (from UniProt P01148 24-92) (peptide)

IC50 of inhibition of GnRH-stimulated (10^-8 M) inositol phosphate production, transfected COS-1 cells [11]: 6.7 nM
Kd [12]: 0.21 nM
Compound: antagonist 13: [Ac-D-NaI^1,D-α-4-ClPhe^2,D-Pal^3,D-Arg^6, D-Ala^10]GnRH (from UniProt P01148 24-92) (peptide)

EC50 of inositol phosphate production, COS-1 cells transfected with human GnRH-R [11]: 3 nM
increase in phosphoinositol metabolism at maximal receptor stimulation, COS-1 cells transfected with human GnRH-R [11]: 8 fold
response to GnRH alone (clamp current) in WZ25 RNA-injected oocytes [6]: 4760 nA
Compound: gonadotropin-releasing hormone (GnRH) (from UniProt P01148 24-92) (peptide)
